Assay results reported in patent US20220010337A1.

biological target: IL2 receptors (on the HEK IL-2 reporter cell line) (human) (UniProt P01589); assay: cell-based or functional assay
Sequence (P01589 22-272, chain 1 of 3): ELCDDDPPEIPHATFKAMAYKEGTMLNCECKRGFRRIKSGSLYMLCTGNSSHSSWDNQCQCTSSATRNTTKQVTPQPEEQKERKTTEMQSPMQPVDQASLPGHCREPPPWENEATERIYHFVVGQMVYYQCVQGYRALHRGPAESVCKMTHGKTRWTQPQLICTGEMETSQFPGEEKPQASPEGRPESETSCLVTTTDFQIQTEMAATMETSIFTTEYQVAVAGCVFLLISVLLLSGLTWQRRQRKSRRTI
Sequence (P14784 27-551, chain 2 of 3, further chain): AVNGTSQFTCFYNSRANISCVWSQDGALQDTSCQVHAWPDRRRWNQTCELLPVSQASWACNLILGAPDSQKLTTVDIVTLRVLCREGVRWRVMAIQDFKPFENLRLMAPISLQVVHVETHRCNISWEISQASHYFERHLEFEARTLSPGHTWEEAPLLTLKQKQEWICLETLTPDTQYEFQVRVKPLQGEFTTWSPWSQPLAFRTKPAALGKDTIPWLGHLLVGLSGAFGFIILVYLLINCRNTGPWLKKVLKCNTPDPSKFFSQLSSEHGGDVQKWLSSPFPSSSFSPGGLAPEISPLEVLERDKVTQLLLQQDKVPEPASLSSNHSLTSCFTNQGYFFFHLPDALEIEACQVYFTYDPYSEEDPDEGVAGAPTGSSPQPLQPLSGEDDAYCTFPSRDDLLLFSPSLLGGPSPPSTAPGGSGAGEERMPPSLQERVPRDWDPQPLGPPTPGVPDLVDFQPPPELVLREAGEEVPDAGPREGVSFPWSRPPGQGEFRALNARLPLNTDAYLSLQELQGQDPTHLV
Sequence (P31785 23-369, chain 3 of 3, further chain): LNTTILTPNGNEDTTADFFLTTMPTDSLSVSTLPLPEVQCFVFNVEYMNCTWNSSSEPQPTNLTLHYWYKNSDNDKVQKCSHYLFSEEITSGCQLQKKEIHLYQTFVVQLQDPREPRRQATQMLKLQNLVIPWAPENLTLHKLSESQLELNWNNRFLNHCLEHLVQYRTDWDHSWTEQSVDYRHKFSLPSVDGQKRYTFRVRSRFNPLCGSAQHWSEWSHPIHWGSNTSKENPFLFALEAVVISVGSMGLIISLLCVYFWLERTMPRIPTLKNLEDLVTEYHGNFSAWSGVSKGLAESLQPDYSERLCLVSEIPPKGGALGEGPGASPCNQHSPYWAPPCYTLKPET

Row | IL-2 EC50 (nM) (approx.); SEAP induction in the HEK IL-2 reporter cell line, OD | Substance
1 | 0.87 | Cas9-2xNLS-IL2(superkine) (from UniProt P60568 21-153)
2 | 0.34 | Cas9-2xNLS-mouse WT IL2 (from UniProt P04351 21-169)
3 | 0.037 | IL2(SK)-SpyTag (ligand)
4 | 0.0057 | recombinant mouse IL-2 (from UniProt P04351 21-169) (ligand)

Row | Substance | IL-2 EC50 (nM) (approx.); SEAP induction in the HEK IL-2 reporter cell line, OD
5 | SpyCatcher-Cas9(WT)-2xNLS:Spytag-IL2(SK) conjugate (from UniProt Q99ZW2 2-1368) | 0.0095
